Laboratory results published in publication PMC8850660 (2022).

Assays:
[1] = biological target: T1, unphosphorylated beta subunit of the insulin receptor (IRβ), recombinant (UniProt P06213 763-1382); assay: SPR; in the presence of C646 (0-100 nM)
[2] = biological target: T1, unphosphorylated beta subunit of the …; assay: SPR; in the presence of C646 (0-100 nM); remark: listed apart in the source

T1 sequence (P06213 763-1382): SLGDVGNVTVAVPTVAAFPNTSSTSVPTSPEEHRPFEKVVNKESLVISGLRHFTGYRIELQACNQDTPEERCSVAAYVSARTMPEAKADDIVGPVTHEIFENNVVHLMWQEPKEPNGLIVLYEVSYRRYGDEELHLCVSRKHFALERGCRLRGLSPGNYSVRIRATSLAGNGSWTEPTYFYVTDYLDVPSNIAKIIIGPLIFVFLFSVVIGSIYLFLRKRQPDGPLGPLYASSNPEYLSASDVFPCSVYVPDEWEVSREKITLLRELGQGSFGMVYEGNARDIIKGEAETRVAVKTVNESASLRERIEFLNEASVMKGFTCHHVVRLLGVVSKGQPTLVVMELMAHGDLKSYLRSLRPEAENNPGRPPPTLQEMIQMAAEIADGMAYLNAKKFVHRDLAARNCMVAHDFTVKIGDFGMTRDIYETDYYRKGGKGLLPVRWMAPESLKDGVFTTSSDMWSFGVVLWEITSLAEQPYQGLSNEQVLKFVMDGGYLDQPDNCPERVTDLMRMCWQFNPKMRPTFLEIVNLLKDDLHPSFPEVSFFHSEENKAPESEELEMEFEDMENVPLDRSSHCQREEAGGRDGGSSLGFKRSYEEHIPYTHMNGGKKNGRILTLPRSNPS

Row | Kd [1] [pM] | koff [2] [s⁻¹] | Binder
1 | 0.286 | 3.92e-08 | purified IRS1 protein (insulin receptor substrate 1) (natural protein) MASPPDTDGFSDVRKVGYLRKPKSMHKRFFVLRAASEAGGPARLEYYENEKKWRHKSSAPKRSIPLESCFNINKRADSKNKHLVALYTRDEHFAIAADSEAEQDSWYQALLQLHNRAKAHHDGAGGGCGGSCSGSSGVGEAGEDLSYDTGPGPAFKEVWQVILKPKGLGQTKNLIGIYRLCLTSKTISFVKLNSEAAAVVLQLMNIRRCGHSENFFFIEVGRSAVTGPGEFWMQVDDSVVAQNMHETILEAMRAMSDEFRPRSKSQSSSSCSNPISVPLRRHHLNNPPPSQVGLTRRSRTESITATSPASMVGGKPGSFRVRASSDGEGTMSRPASVDGSPVSPSTNRTHAHRHRGSSRLHPPLNHSRSIPMPSSRCSPSATSPVSLSSSSTSGHGSTSDCLFPRRSSASVSGSPSDGGFISSDEYGSSPCDFRSSFRSVTPDSLGHTPPARGEEELSNYICMGGKGASTLAAPNGHYILSRGGNGHRYIPGANLGTSPALPGDEAAGAADLDNRFRKRTHSAGTSPTISHQKTPSQSSVASIEEYTEMMPAAYPPGGGSGGRLPGYRHSAFVPTHSYPEEGLEMHHLERRGGHHRPDTSNLHTDDGYMPMSPGVAPVPSNRKGNGDYMPMSPKSVSAPQQIINPIRRHPQRVDPNGYMMMSPSGSCSPDIGGGSSSSSSISAAPSGSSYGKPWTNGVGGHHTHALPHAKPPVESGGGKLLPCTGDYMNMSPVGDSNTSSPSECYYGPEDPQHKPVLSYYSLPRSFKHTQRPGEPEEGARHQHLRLSSSSGRLRYTATAEDSSSSTSSDSLGGGYCGARPESSLTHPHHHVLQPHLPRKVDTAAQTNSRLARPTRLSLGDPKASTLPRVREQQQQQQSSLHPPEPKSPGEYVNIEFGSGQPGYLAGPATSRSSPSVRCPPQLHPAPREETGSEEYMNMDLGPGRRATWQESGGVELGRIGPAPPGSATVCRPTRSVPNSRGDYMTMQIGCPRQSYVDTSPVAPVSYADMRTGIAAEKASLPRPTGAAPPPSSTASSSASVTPQGATAEQATHSSLLGGPQGPGGMSAFTRVNLSPNHNQSAKVIRADTQGCRRRHSSETFSAPTRAGNTVPFGAGAAVGGSGGGGGGGSEDVKRHSSASFENVWLRPGDLGGVSKESAPVCGAAGGLEKSLNYIDLDLAKEHSQDCPSQQQSLPPPPPHQPLGSNEGNSPRRSSEDLSNYASISFQKQPEDRQ
2 | 7.6 | 1.5e-06 | purified IRS2 protein (insulin receptor substrate 2) (natural protein) MASAPLPGPPASAGGDGPNLNNNNNNNNHSVRKCGYLRKQKHGHKRFFVLRGPGTGGDEASAAGGSPPQPPRLEYYESEKKWRSKAGAPKRVIALDCCLNINKRADAKHKYLIALYTKDEYFAVAAENEQEQEGWYRALTDLVSEGRSGEGGSGTTGGSCSASLPGVLGGSAGAAGCDDNYGLVTPATAVYREVWQVNLKPKGLGQSKNLTGVYRLCLSARTIGFVKLNCEQPSVTLQLMNIRRCGHSDSFFFIEVGRSAVTGPGELWMQADDSVVAQNIHETILEAMKALKELFEFRPRSKSQSSGSSATHPISVPGARRHHHLVNLPPSQTGLVRRSRTDSLAATPPAAKCTSCRVRTASEGDGGAAGGAGTAGGRPMSVAGSPLSPGPVRAPLSRSHTLSAGCGGRPSKVTLAPAGGALQHSRSMSMPVAHSPPAATSPGSLSSSSGHGSGSYPLPPGSHPHLPHPLHHPQGQRPSSGSASASGSPSDPGFMSLDEYGSSPGDLRAFSSHRSNTPESIAETPPARDGSGGELYGYMSMDRPLSHCGRPYRRVSGDGAQDLDRGLRKRTYSLTTPARQRQVPQPSSASLDEYTLMRATFSGSSGRLCPSFPASSPKVAYNPYPEDYGDIEIGSHKSSSSNLGADDGYMPMTPGAALRSGGPNSCKSDDYMPMSPTSVSAPKQILQPRLAAALPPSGAAVPAPPSGVGRTFPVNGGGYKASSPAESSPEDSGYMRMWCGSKLSMENPDPKLLPNGDYLNMSPSEAGTAGTPPDFSAALRGGSEGLKGIPGHCYSSLPRSYKAPCSCSGDNDQYVLMSSPVGRILEEERLEPQATPGAGTFGAAGGSHTQPHHSAVPSSMRPSAIGGRPEGFLGQRCRAVRPTRLSLEGLQTLPSMQEYPLPTEPKSPGEYINIDFGEAGTRLSPPAPPLLASAASSSSLLSASSPASSLGSGTPGTSSDSRQRSPLSDYMNLDFSSPKSPKPSTRSGDTVGSMDGLLSPEASSPYPPLPPRPSTSPSSLQQPLPPAPGDLYRLPPASAATSQGPTAGSSMSSEPGDNGDYTEMAFGVAATPPQPIVAPPKPEGARVASPTSGLKRLSLMDQVSGVEAFLQVSQPPDPHRGAKVIRADPQGGRRRHSSETFSSTTTVTPVSPSFAHNSKRHNSASVENVSLRKSSEGSSTLGGGDEPPTSPGQAQPLVAVPPVPQARPWNPGQPGALIGCPGGSSSPMRRETSVGFQNGLNYIAIDVRGEQGSLAQSQPQPGDKNSWSRTRSLGGLLGTVGGSGASGVCGGPGTGALPSASTYASIDFLSHHLKEATVVKE
